For assay [1], the target named is T1, ENO2-GST (human ENO2 expressed from pGEX 4t-1, GST-column purified) (human, UniProt P09104 1-434).
T1 construct: Expressed in E. coli BL21(DE3) and used to coat ELISA plates at 100 ng/well; also called pGEX 4t-1载体表达的ENO2; ENO2-4t-1; not shown: GST tag supplied by vector pGEX 4t-1
Description: ELISA screening of hybridoma supernatants on ENO2-GST coated plates.

Assay [2] concerns the target T2, ENO2flag (ENO2 with C-terminal flag tag, pcDNA3.1, expressed in 293T cells) (human, UniProt P09104 2-434, limits assumed).
T2 construct: Tested as a lysate of transfected 293T cells (Western blot) and in acetone-fixed transfected 293T cells (immunofluorescence); also called ENO2flag-pcDNA3.1; ENO2抗原; not shown: C-terminal flag tag
The assay can be described thus: Western blot, lysate of 293T cells transfected with ENO2flag-pcDNA3.1, hybridoma supernatant. On the technique in general: In western blotting, separated proteins are transferred to a membrane and probed.

Assay [3] addresses T3, 纯化的ENO2蛋白 (coating protein of the Example 7 ELISA) (human, UniProt P09104 1-434).
T3 construct: also called 抗原ENO2
Description: ELISA, ENO2-coated plate (100 ng/well), 293T supernatant, HRP anti-IgG / anti-kappa secondary.

T3 sequence (P09104 whole entry): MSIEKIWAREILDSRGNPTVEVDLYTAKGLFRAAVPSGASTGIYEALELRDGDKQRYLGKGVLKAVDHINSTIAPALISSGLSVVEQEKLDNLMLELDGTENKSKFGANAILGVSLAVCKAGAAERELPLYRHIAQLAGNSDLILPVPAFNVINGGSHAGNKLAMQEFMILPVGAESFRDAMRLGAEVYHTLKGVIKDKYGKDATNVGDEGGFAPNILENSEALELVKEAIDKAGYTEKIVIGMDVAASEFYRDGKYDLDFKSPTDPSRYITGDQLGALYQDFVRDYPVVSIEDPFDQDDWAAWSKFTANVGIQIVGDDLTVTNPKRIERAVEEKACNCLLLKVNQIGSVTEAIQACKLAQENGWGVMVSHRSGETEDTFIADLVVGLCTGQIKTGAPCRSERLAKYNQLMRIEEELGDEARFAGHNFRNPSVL
T1 sequence (P09104 whole entry): as above
T2 sequence (P09104 2-434 limits assumed): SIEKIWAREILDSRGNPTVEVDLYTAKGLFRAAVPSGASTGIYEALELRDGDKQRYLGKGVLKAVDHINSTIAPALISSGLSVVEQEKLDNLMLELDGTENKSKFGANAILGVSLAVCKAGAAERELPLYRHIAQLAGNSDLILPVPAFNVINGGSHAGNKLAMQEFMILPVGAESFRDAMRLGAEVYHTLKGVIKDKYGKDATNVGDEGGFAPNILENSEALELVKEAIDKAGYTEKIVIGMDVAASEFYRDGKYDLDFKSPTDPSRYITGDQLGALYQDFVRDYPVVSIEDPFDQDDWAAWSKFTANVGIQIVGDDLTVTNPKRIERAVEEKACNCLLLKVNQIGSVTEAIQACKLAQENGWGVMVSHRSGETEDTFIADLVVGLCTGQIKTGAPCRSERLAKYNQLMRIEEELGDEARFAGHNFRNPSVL

B1: 抗神经特异性烯醇化酶的单克隆抗体4C11 (hybridoma-derived) (antibody, V domains shown)
VH: EVKLVESGGGLVQPGGSLRLSCATSGFTFTDYYMSWVRQPPGKALEWLGFIRNKANGYTTEYSASVKGRFTISRDNSQSILYLQMNTLRAEDSATYYCARDGDGSARWGQGTLVTVSA
VL: DIQMTQTTSSLSASLGDRVTISCRASQDISNYLNWYQQKPDGTVKLLIYYTSRLHSGVPSRFSGSGSGTDYSLTISNLEQEDIATYFCQQGNTLPYTFGGGTRLEIR
notes: Mouse hybridoma antibody; It was tested as hybridoma supernatant or ascites; also called 4C11单克隆抗体
On to B1, for which the binding result in assay [1] and in assay [2] was “binds” each time.

B2: 重组4C11抗体重链4C11mG1 (transfected alone) (other)
heavy: B1 VH
notes: Heavy chain only, with no light chain; tested as 293T culture supernatant; not shown: mouse IgG1 heavy-chain constant region supplied by vector pFUSE-CHIg-mG1 (invivogen)
With B2, the binding result in assay [3] was “no binding”.

B3: 重组4C11抗体轻链4C11mk (transfected alone) (other)
light: DIQMTQTTSSLSASLGDRVTISCRASQDISNYLNWYQQKPDGTVKLLIYYTSRLHSGVPSRFSGSGSGTDYSLTISNLEQEDIATYFCQQGNTLPYTFGGGTRLEIRRADAAPTVSIFPPSSEQLTSGGASVVCFLNNFYPKDINVKWKIDGSERQNGVLNSWTDQDSKDSTYSMSSTLTLTKDEYERHNSYTCEATHKTSTSPIVKSFNRNEC
notes: Light chain only, with no heavy chain; tested as 293T culture supernatant
B3: in assay [3], the binding result is on record as “no binding”.

The record behind these values is patent CN114426582A (SHAANXI PULSE ELEMENT BIOTECHNOLOGY LTD COMPANY, dated 2022).
